Measurements as given in patent US20260209365A1, “ANTI-COMMON GAMMA CHAIN PROTEINS AND COMPOSITIONS OF MATTER” (SINOMAB BIOSCIENCE LIMITED, priority 2023, published 2026).

T1: mouse γc (Mus musculus, UniProt P34902)
T1 construct: 6×His (C)
T1 sequence (P34902 with tags, fused parts or gaps): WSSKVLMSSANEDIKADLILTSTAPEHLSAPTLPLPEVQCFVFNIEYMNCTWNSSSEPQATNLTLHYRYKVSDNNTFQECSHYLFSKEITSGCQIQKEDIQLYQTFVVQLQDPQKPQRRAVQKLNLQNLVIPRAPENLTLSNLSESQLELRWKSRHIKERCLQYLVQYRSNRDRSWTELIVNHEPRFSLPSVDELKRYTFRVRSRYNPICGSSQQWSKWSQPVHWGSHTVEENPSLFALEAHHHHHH

T2: human γc proteins (Homo sapiens, UniProt P31785)
T2 construct: extracellular domain of human γc protein (amino acids: 1-262); host or cells: Expi-CHO (e.g.)
T2 sequence (P31785 23-262): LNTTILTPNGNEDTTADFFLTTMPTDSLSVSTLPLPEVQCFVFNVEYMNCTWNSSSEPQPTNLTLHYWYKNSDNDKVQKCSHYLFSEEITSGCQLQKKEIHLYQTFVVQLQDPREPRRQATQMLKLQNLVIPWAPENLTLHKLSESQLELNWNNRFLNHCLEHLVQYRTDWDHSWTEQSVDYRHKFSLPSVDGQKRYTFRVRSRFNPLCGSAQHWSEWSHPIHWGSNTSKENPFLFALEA

T3: native γc proteins from human (Homo sapiens, UniProt P31785)
T3 construct: transfected with plasmid expressing full length γc protein from human; expressed in transfected cells; host or cells: HEK-293
T3 sequence (P31785 23-369): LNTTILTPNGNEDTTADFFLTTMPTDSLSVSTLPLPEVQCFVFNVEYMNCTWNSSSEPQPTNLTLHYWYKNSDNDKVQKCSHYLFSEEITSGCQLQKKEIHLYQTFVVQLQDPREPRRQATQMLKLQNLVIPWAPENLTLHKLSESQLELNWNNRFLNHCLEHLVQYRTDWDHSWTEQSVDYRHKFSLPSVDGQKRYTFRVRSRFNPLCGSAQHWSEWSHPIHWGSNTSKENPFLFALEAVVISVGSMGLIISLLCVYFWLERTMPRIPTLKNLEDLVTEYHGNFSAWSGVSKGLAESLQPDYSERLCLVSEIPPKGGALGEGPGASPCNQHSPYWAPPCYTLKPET


Legend:
[1] = target: T1, mouse γc; test: BLI binding kinetics to mouse γc protein
[2] = target: T2, human γc proteins; test: BLI binding kinetics to human γc protein
Method: (§1) Full-length humanized antibodies were evaluated by BLI to access their binding kinetics. The binding activities of full-length anti-γc antibody were investigated using γc proteins (extracellular domain) from human and common marmoset (either purchased or in-house generated). Briefly, anti-γc antibody (20 μg/mL) was immobilized on biosensors via interactions with anti-human IgG; serially diluted γc proteins (at a concentration of 158.7 nM, 79.4 Nm, 39.7n M and 0 nM respectively) were subsequently added following standard operation protocols of the Octet ReD96 system to plot out the association and dissociation curve. Irrelevant antibody (SM03, anti-human CD22 chimeric IgG1 antibody, SinoMab BioScience Limited) was used as the control reference. The KD is within the picomolar-single digit nanomolar range.

[3] = test system: IL-15 induced p-STAT5; test: Suppression of p-STAT in PBMC, IL-15; assay type: cell-based, human; conditions: antibody 10 μg/ml, compared to isotype control
Method: (§2) Given numbers refer to the percentage of inhibition compared to isotype control stimulated with respective γc cytokine. Antibody concentration is 10 μg/ml.

[4] = test system: native γc proteins from common marmoset; test: Binding to native common marmoset γc on transfected HEK-293 cells, flow cytometry; assay type: cell-based; conditions: FITC-labelled antibody 33 nM (5 μg/ml)
Method: (§3) The binding specificities of humanized anti-γc antibodies to native γc proteins were further evaluated by […] binding assay. In brief, human HEK-293 cells were transfected with plasmid expressing full length γc protein from human, rhesus, cynomolgus or common marmoset. Two days later, transfected cells or non-transfected controls were incubated with FITC-conjugated hSM-05A on ice for an hour before analysis by flow cytometry.

[5] = test system: IL-21 induced p-STAT3; test: Suppression of p-STAT in PBMC, IL-21; assay type: cell-based, human; conditions: antibody 10 μg/ml, compared to isotype control
Method: as §2

[6] = Structural stability by SEC-HPLC; assay type: physicochemical; conditions: for purity by SEC-HPLC after incubation: 12 days after PBS exchange at RT and 37° C.
Method: Next, structural stabilities of hSM-05A and hSM-05E were studied by incubation at either room temperature or 37° C. for around 2 weeks. SEC-HPLC was utilized to measure aggregates and degradation of antibodies. […] No degradation of the antibodies was observed aft er 2 weeks.

[7] = test system: IL-4 induced p-STAT6; test: Suppression of p-STAT in PBMC, IL-4; assay type: cell-based, human; conditions: antibody 10 μg/ml, compared to isotype control
Text: PBMC isolated from healthy individuals (iXCells Biotechnologies, San Diego, USA) is chosen as the primary immune cell culture to conclude the efficacies of anti-γc antibodies in the primary cells. As STAT phosphorylation could be triggered by the treatment of all six γc cytokines (except IL-9) in the PBMC culture (FIG. 12A-B), inhibition of p-STAT could be used as an indicator to confirm the efficacies of anti-γc antibodies.
as §2

[8] = target: T3, native γc proteins from human; test: Binding to native human γc on transfected HEK-293 cells, flow cytometry; assay type: cell-based; conditions: FITC-labelled antibody 33 nM (5 μg/ml)
Method: as §3

[9] = test system: IL-9 induced ERK phosphorylation; test: Western blot of IL-9 induced ERK phosphorylation in Jurkat T cells; assay type: cell-based, human; conditions: humanized antibodies; 33 nM (5 μg/ml)
[10] = test system: common marmoset γc; test: BLI binding kinetics to common marmoset γc protein; parameters: species or system common marmoset (Callithrix jacchus)
Method: as §1

[11] = test system: γc proteins from chimpanzee; test: ELISA binding of full-length antibodies to chimpanzee γc; parameters: species or system chimpanzee (Pan troglodytes); conditions: humanized antibodies with back-mutation
Method: Selected clones of full-length antibodies were evaluated by ELISA to access the binding specificity. The binding activities of full-length anti-γc antibody were investigated using γc proteins (extracellular domain) from human (SEQ ID NO: 205-206), cynomolgus (Sequence ID: XP_005593949.1, SEQ ID NO: 207-208) and chimpanzee (Sequence ID: XP_008971810.1, SEQ ID NO: 209-210) either purchased from Sino Biological or in-house generated.
Humanized antibodies with back-mutation (hSM-05A and hSM-05E) were tested in the following assays. Binding affinities were investigated in the ELISA assays.

[12] = test system: rat γc; test: BLI binding kinetics to rat γc protein
[13] = room temperature or 37° C. for around 2 weeks

common marmoset γc, sequence (as listed by the source): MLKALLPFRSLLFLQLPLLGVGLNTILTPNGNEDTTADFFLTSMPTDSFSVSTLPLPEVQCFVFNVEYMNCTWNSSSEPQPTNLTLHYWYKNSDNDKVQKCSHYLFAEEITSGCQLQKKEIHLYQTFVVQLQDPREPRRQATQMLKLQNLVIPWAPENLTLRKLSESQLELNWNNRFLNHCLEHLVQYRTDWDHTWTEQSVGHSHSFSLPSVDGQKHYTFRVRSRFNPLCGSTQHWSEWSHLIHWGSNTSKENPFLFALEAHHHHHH
γc proteins from chimpanzee, sequence (as listed by the source): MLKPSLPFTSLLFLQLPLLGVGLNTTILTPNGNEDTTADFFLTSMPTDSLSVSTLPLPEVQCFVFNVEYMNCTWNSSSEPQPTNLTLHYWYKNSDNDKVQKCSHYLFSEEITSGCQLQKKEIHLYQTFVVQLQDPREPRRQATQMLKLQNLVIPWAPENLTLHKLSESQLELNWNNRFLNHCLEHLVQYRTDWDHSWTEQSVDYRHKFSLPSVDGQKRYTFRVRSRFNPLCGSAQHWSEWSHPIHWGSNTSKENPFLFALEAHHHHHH
rat γc, sequence (as listed by the source): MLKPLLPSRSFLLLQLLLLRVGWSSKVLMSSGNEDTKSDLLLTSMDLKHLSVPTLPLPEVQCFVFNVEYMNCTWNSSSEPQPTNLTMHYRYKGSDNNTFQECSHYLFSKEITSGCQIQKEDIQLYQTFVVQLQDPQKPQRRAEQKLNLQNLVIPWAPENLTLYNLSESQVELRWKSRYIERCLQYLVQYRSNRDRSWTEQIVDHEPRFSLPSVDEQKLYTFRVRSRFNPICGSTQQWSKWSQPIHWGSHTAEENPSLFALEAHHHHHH
native γc proteins from common marmoset, sequence (as listed by the source): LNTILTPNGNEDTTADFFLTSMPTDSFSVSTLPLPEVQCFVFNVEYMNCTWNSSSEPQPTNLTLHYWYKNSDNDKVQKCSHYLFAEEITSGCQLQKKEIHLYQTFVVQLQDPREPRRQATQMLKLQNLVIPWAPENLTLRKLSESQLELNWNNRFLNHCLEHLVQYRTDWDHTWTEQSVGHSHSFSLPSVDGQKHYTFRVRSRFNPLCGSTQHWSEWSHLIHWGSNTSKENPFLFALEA

Molecule | Ka [1] | Kdis [1] | Ka ([2]; Experiment 1) | Kdis ([2]; Experiment 1) | Ka ([2]; Experiment 2) | Kdis ([2]; Experiment 2) | IL-15 induced p-STAT5, percentage of inhibition [3] | binding to native common marmoset γc on HEK-293 [4] | IL-21 induced p-STAT3, percentage of inhibition [5] | purity by SEC-HPLC after incubation [6] | aggregation state after incubation [6, 13] | IL-4 induced p-STAT6, percentage of inhibition [7] | binding to native human γc on HEK-293 [8] | suppression of IL-9 induced ERK phosphorylation [9] | Ka [10] | Kdis [10] | ELISA binding to chimpanzee γc [11] | Ka [12] | Kdis [12] | fraction forming aggregates [6, 13]
hSM-05A: full-length humanized anti-γc antibody derived from SM-05A by framework patching (antibody, V domains shown) VH: QVQLVQSGAEVLKPGASVKVSCKASGYTFTEYTMHWVKQARGQRLEWIGGIDPYNGGATYNQRFKGKATLTTDTSTSTAYMELRNLRSDDTAVYYCARRRLYYGNALDYWGQGTLVTVSS VL: DIVMTQSPLSLPVTPGEQASISCRSSQSLVHSNGNTYLHWYLQKPGQSPQLLIYKVSSRFSGVPDRFSGSGSGTDFTLKISRVEAEDVGVYFCSQTTHVPFTFGSGTKLEIKR | 6580 M⁻¹ s⁻¹ | 0.000712 s⁻¹ | 119000 M⁻¹ s⁻¹ | 0.000319 s⁻¹ | 175000 M⁻¹ s⁻¹ | 0.00144 s⁻¹ | 100% | could bind to the native γc proteins from humans and common marmoset | 82.80% | around 99.9% | remained as single molecule | 17.18% | could bind to the native γc proteins from humans and common marmoset | better suppression to IL-9 induced ERK phosphorylation than hSM-05E | 300000 M⁻¹ s⁻¹ | 0.00121 s⁻¹ | retained the binding affinity and specificity | – | – | –
hSM-05E: full-length humanized anti-γc antibody derived from SM-05E by framework patching (antibody, V domains shown) VH: QVQLVQSGAEVLKPGASVKVSCKASGYTFTEYTMHWVKQARGQRLEWIGGIDPNTGGVTYNQKFKGKATLTTDTSTSTAYMELRNLRSDDTAVYYCARRRRYYGYALDYWGQGTLVTVSS VL: DIVMTQSPLSLPVTPGEQASISCRSSQSIVHSNGNTYLEWYLQKPGQSPQLLIYKVSNRFSGVPDRFSGSGSGTDFTLKISRVEAEDVGVYFCSQSTHVPFMFGSGTKLEIKR | 340000 M⁻¹ s⁻¹ | 0.0252 s⁻¹ | 119000 M⁻¹ s⁻¹ | 0.000573 s⁻¹ | 327000 M⁻¹ s⁻¹ | 0.000944 s⁻¹ | 100% | – | 100% | around 80% | – | 21.74% | – | – | 333000 M⁻¹ s⁻¹ | 0.00175 s⁻¹ | retained the binding affinity and specificity | 71000 M⁻¹ s⁻¹ | 0.00208 s⁻¹ | around 20%
